From patent US20120190612A1, “METHODS OF TREATMENT” (CRC FOR ASTHMA AND AIRWAYS LTD., priority 2009, published 2012)

Legend:
[1] = system: lung adenocarcinoma cells (LNM35 AAV-GFP); assay: Mouse ear tumour plug model of tumour-induced lymphangiogenesis; type: in vivo; details: lamstatin 10 or 100 μg/mL; CP17 5 or 50 μA; vs vehicle
Method: A mouse ear tumour plug model was utilized in which green fluorescent protein (GFP)-tagged lung adenocarcinoma cells (LNM35 AAV-GFP) were injected between the two layers of skin of the ears of NOD/SCID mice. 1×10^6 tumour cells were embedded in […] growth factor free Matrigel® medium enriched with vehicle (1 nM EDTA, pH3.0) or lamstatin at either 10 μg/mL or 100 μg/mL. Mice were divided into three groups.
Group 1 (n=9): One ear of each mouse injected with tumour cells+10 μg/mL lamstatin; the other ear injected with tumour cells+vehicle control. Group 2 (n=9): One ear of each mouse injected with tumour cells+100 μg/mL lamstatin; the other ear injected with tumour cells+vehicle control. Group 3 (n=3): Each ear injected with Matrigel® only.
Injections were single shots such that at least 25 μL was injected. 12 days after injection were sacrificed by anesthetisation and cervical dislocation. Ears were removed for whole mount staining. Flaps of skin from each ear were carefully separated, fixed and stained for either the lymphatic endothelial cell specific marker LyVe-1 (rabbit polyclonal anti-LyVe-1 antibody detected using anti-rabbit Alexafluor 647) or the vascular endothelial cell specific marker PECAM (CD31 rat anti-mouse antibody clone MEC13.3 (Pharmingen), detected with […]). Tumour cells were visualised by detection of GFP expression. Images of representative regions of ears were obtained using a confocal microscope and LyVe-1 or PECAM staining was quantified.
Using the LyVe-1 whole mount stained mouse ear sections, the inventors further investigated the morphology of lymphatic vessel formation. Specifically confocal images were loaded into Image J software (www.sbweb.nih.gov/ij/), a 5×5 grid overlayed and vessels examined for branching and looping. The functionality of a lymphatic network is based on its maturity and in general it is accepted that a tumour induces a rather immature network formation. Reconnecting vessels (measured as loops) and increased branching (measured as branches) are signs of immature vessels induced by, for example, a tumour (see for example Shayan et al. Growth Factors 25, 417-425, 2007).
Branches were defined as two clearly distinguishable vessels that separate out without rejoining. Loops were defined as small, circular vessel structures in the same focal plane. Branches or loops were counted separately per image and mean values were calculated for each treatment group.

HMVEC-LLy cells [2] = assay: Migration towards a VEGF-D gradient (FluoroBlok transwell); type: cell-based, human; details: 24 hrs
Method: FluoroBlok BioCoat 24-well inserts (BD Bioscience) were seeded with 4×10^4 HMVEC-LLy cells in 750 μL DMEM with 0.1% BSA, 1% antibiotics and 25 mM HEPES and incubated for 1 hr. The bottom well was filled with 500 μL medium (as described above) with or without 10 ng/mL VEGF-D (R&D Systems) as well as various concentrations of lamstatin, tumstatin, CP17 or vehicle. Additionally, top wells were loaded with inhibitors to match the bottom well concentration. According to manufacturer's instructions cells were allowed to migrate for 24 hrs before bottom media was removed. Thereafter the underside of the transwell with the migrated cells was washed twice with HANKS buffer and placed in a 4 μg/mL calcein (HANKS) solution for 90 min at 37° C. Signal was read with a bottom read fluorescence microplate reader at 485/515 nm (excitation/emission).

HMVEC-LLy cells [3] = assay: Tube formation on Matrigel; type: cell-based, human; details: 24 hrs, n=2
Method: To assess formation of tubular structures, 48 well plates were coated with 130 μL Matrigel® (BD Bioscience), which was solidified at 37° C. over 45 min. 2×10^4 HMVEC-LLy cells in complete EBM-2 (500 μL) were seeded per well and allowed to attach for 30 min, before lamstatin, tumstatin, CP17 or vehicle was added to the wells. Photos were taken with a Kodak Digital Camera every 2 hrs. Tube formation peaked at 24 hrs, at which time tubular structures were further analysed to determine length (in pixels) and number of tubes per high power field (HPF) area (px^2). The HPF was divided in nine regions of equal size and tubes per region were counted. Mean and SEM were calculated and plotted.

integrin α5 = biological target: T1, integrin α5 (Homo sapiens, UniProt P05556+P08648); assay: Integrin binding of HMVEC-LLy cells on antibody-coated plates; type: cell-based; details: lamstatin 10 μg/ml, CP17 5 μM, 1 h
T1 construct: endogenous in cells; host or cells: HMVEC-LLy (human primary lymphatic endothelial cells)
Method: (§1) Antibodies for integrin α5 (MAB1956Z; MAB1953Z), integrin β1 (MAB2253Z) and integrin β3 (MAB1957Z) (all Millipore, USA) were coated to 96 well tissue culture plates (Nunc, USA) at a concentration of 10 μg/mL overnight at 4° C. in sterile coating buffer (50 mM Na2CO3, 50 mM NaHCO3, pH 9.6). Plates then were blocked with sterile 1% BSA/PBS for 1 h at 37° C. and washed twice with EBM-2 MV (Lonza, Basel, Switzerland). MMVEC-LLy cells were carefully removed from culture flasks with non-enzymatic detachment solution (Trevigen, Md., USA) and washed twice with EBM-2 (Lonza, Basel, Switzerland). Volume was adjusted to a cell concentration of 50,000 cells/100 μL and divided into aliquots for treatment with recombinant lamstatin (10 μg/ml), CP17 (5 μM) or vehicle (1 nM EDTA, pH 3.5) only. Cells were then transferred to the antibody-coated plates and incubated for 1 h at 37° C. Wells were then washed with HANKS twice to remove unbound cells and fixed with 4% paraformaldehyde (in PBS) for 15 min at room temperature. Wells thereafter were photographed with an Olypmus CAMEDIA C-4000 camera mounted to an Olympus CK2 microscope. Pictures were divided into 25 segments and cells of 5 center-near quadrants were counted and averaged. […] Using a similar approach, the inventors observed no expression of integrin α4 on the surface of HMVEC-LLy cells (data not shown).

integrin β3 = biological target: T2, integrin β3 (Homo sapiens, UniProt P05106); assay: as above; type: cell-based; details: lamstatin 10 μg/ml, CP17 5 μM, 1 h
T2 construct: endogenous in cells; host or cells: HMVEC-LLy (human primary lymphatic endothelial cells)
Method: as §1

integrin β1 = biological target: T3, integrin β1 (Homo sapiens, UniProt P05556+P08648); assay: as above; type: cell-based; details: lamstatin 10 μg/ml, CP17 5 μM, 1 h
T3 construct: endogenous in cells; host or cells: HMVEC-LLy (human primary lymphatic endothelial cells)
Method: as §1

integrins α5 and β1 = biological target: T4, integrins α5 and β1 (Homo sapiens, UniProt P05556+P08648); assay: Integrins mediating binding of lymphatic endothelial cells (data not shown); type: cell-based; details: HMVEC-LLy in vitro, different from HUVECs
T4 construct: endogenous in cells; host or cells: HMVEC-LLy (human primary lymphatic endothelial cells)

VEGF-D (R&D Systems) = VEGF-D (R&D Systems) (UniProt O43915); assay: cell-based or functional assay
LAM nodule cells = assay: MTT cell viability assay, LAM nodule cells; type: cell-based; details: intermediate layer, centre and outer nodule cells, 72 hrs
Method: (§2) To determine the function of lamstatin, human primary lymphatic endothelial cells (HMVEC-LLy cells) were exposed to various concentrations of lamstatin and an MTT assay was performed. As a comparison, commercially available tumstatin was used. Specifically, to assess cell viability 4×10^3 HMVEC-LLy cells were seeded per well in 100 μl complete EBM-2 media (with bullet kit, Lonza) and incubated for 2 hrs at 37° C., 5% CO2. After this period lamstatin, tumstatin and respective vehicles (1 nM EDTA, pH 3.0) were prepared in complete EBM-2 as serial dilutions in a separate plate and added. Cells were grown for 24 hrs before MTT (1 mg/mL in PBS) was added. After 6 h of further incubation cells were lysed overnight with 10% SDS/0.01 M HCl and measured the following day in a plate reader at 570 nm.
The inventors isolated lung cells from a LAM patient, which cells originated from the LAM nodules. These cells were termed according to their location within the nodule, as intermediate layer in the nodule, centre cells and outer nodule cells. These cells were then treated with lamstatin or tumstatin and cell viability measured after 72 hrs. The MTT viability assay was performed as described above in Example 1.

[4] = system: human primary lymphatic endothelial cells (HMVEC-LLy cells); assay: MTT cell viability assay, lymphatic endothelial cells; type: cell-based; details: 24 hrs, data not shown
Method: as §2, with “Cells were grown for 24 hrs before MTT (1 mg/mL in PBS) was added.” left out
The MTT assay was performed as described above.

T3 sequence (P05556 21-798): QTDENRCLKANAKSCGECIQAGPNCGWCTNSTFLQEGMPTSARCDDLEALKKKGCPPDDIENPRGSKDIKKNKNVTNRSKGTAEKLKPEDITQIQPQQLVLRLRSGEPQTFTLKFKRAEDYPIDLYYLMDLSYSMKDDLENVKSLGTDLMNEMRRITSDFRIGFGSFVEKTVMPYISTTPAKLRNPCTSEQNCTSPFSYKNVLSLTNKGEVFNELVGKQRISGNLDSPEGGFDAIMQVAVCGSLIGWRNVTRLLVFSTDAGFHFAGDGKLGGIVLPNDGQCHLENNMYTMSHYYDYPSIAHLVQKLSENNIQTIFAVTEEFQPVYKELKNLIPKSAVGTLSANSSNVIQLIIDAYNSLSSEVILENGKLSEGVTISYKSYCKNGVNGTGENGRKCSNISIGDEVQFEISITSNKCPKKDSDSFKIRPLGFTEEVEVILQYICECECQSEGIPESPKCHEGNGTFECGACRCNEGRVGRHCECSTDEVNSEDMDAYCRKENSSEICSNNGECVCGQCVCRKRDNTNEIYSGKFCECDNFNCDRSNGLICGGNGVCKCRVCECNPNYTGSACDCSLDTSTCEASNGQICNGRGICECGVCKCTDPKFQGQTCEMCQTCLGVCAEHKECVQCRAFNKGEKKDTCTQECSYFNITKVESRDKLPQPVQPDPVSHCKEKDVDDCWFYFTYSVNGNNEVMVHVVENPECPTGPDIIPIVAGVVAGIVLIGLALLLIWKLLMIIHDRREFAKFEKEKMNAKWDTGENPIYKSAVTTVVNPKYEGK
T3 sequence (P08648 42-894 limits assumed): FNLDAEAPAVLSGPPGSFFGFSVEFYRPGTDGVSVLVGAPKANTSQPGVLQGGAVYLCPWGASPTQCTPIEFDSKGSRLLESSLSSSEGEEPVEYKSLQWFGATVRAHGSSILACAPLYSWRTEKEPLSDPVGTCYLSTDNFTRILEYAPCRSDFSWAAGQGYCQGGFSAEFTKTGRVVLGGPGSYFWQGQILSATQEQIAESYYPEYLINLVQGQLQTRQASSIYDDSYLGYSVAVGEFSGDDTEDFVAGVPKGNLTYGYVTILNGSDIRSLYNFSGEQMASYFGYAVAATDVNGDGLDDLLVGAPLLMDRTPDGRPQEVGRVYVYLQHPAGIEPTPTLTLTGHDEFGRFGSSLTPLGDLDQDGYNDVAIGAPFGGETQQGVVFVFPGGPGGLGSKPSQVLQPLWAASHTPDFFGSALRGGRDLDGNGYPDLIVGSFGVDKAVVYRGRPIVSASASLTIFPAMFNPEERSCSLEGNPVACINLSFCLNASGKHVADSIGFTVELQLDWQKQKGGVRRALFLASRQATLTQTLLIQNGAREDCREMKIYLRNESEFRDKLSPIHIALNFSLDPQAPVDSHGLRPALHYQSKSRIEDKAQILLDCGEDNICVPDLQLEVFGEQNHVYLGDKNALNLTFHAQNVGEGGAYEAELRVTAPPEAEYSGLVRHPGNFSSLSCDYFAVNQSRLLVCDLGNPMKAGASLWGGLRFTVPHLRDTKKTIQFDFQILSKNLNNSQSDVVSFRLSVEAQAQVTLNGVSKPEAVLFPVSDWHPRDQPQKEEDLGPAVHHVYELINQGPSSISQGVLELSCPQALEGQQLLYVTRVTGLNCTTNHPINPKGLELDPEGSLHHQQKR
T3 sequence (P08648 895-1049 limits assumed): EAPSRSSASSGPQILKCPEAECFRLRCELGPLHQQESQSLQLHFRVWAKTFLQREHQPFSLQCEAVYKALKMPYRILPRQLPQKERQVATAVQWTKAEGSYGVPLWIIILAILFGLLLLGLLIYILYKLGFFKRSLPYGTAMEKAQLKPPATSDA
T2 sequence (P05106 27-788): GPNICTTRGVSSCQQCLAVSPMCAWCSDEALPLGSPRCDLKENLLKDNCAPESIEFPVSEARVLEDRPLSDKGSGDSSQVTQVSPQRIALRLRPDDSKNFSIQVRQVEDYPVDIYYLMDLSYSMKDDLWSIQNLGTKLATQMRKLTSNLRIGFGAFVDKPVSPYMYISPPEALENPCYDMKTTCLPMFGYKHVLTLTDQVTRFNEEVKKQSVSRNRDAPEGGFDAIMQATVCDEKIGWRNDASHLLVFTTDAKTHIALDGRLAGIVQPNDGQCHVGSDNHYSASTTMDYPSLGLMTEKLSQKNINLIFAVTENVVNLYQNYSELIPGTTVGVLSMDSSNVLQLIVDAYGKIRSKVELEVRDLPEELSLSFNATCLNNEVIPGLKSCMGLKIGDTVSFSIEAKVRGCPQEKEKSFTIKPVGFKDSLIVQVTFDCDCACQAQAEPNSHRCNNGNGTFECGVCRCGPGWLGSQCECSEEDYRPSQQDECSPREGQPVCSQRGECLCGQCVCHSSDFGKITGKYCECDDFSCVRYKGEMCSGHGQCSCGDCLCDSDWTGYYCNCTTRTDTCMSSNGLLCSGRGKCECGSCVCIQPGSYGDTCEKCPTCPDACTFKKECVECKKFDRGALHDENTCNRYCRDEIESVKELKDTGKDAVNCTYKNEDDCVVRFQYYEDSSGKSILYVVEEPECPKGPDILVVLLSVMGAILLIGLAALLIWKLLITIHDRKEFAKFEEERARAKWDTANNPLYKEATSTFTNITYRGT
T2 sequence (P06756 31-889 limits assumed, further chain): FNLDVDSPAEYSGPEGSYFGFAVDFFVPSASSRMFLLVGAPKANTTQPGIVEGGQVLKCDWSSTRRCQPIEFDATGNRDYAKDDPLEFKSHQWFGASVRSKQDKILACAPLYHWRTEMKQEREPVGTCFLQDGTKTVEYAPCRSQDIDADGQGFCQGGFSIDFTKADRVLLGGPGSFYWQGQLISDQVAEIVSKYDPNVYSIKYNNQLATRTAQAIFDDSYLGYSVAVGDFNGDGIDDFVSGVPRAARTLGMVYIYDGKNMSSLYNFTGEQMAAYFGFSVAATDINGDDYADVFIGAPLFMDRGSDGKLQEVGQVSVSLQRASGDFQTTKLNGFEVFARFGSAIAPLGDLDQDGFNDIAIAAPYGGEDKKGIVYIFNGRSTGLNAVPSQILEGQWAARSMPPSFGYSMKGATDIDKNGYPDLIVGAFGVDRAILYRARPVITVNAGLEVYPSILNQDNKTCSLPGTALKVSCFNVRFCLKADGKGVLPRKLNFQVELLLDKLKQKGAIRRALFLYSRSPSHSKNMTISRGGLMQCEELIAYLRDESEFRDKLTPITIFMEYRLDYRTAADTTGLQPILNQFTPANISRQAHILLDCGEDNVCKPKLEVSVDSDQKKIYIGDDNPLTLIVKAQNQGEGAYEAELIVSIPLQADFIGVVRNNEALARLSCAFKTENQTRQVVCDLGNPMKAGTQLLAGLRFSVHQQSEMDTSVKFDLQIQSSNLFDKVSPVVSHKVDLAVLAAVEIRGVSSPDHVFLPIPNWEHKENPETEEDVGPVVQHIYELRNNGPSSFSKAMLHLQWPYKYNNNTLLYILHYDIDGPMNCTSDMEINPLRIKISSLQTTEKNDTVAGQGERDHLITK
T2 sequence (P06756 891-1048 limits assumed, further chain): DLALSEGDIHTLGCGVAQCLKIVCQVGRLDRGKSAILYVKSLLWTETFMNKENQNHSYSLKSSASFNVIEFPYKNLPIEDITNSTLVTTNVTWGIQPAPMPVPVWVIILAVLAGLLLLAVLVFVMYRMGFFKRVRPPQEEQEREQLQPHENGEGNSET
T1 sequence (P08648 42-894 limits assumed): as the sequence (P08648 42-894 limits assumed) above
T1 sequence (P08648 895-1049 limits assumed): as the sequence (P08648 895-1049 limits assumed) above
T1 sequence (P05556 21-798): as the sequence (P05556 21-798) above

How did the “number of branches of lymphatic vessels” value [1] turn out when “VCNFASRNDYSYWLSTP (listed as Homo sapiens) [CP17]” was run?
The value was “significantly reduced”.

What about the “number of loops of lymphatic vessels” value [1] of the same molecule?
Its value is “significantly reduced”.

What about the “migration towards a VEGFD gradient” value (HMVEC-LLy cells [2]; n=1, VEGFD alone 42.000 RFU) of the same molecule?
The value was “the same effect was not observed”.

And the “numbers of tube-like structures formed” value (HMVEC-LLy cells [3])?
Its value is “reduce in a concentration related manner”.

And the “cell binding in presence of monoclonal antibody against integrin α5” value (integrin α5)?
Its value is “significantly inhibited cell binding”.

And the “cell binding in presence of monoclonal antibody against integrin β3” value (integrin β3)?
The value was “no effect on binding”.

What about the “cell binding in presence of monoclonal antibody against integrin β1” value (integrin β1) of the same molecule?
Its value is “significantly inhibited cell binding”.

What about the “predominant integrins that mediate the binding of lymphatic endothelial cells” value (integrins α5 and β1) of the same molecule?
Its value is “integrins α5 and β1”.

“VEGFD specific blocking fusion receptor (R3-FC) (Fc fusion)” was tested. Which migration of HMVEC-LLy towards a VEGFD gradient after 24 hrs (RFU) (VEGF-D (R&D Systems)) did it give?
Its migration of HMVEC-LLy towards a VEGFD gradient after 24 hrs (RFU) is less than 15000 RFU.

B1: tumstatin: NC1 domain of the α3 chain of collagen type IV; human sequence SEQ ID NO:3; commercially available tumstatin was used (protein, listed as Homo sapiens)
chain: GFVFTRHSQTTAIPSCPEGTVPLYSGFSFLFVQGNQRAHGQDLGTLGSCLQRFTTMPFLFCNVNDVCNFASRNDYSYWLSTPALMPMNMAPITGRALEPYISRCTVCEGPAIAIAVHSQTTDIPPCPHGWISLWKGFSFIMFTSAGSEGTGQALASPGSCLEEFRASPFLECHGRGTCNYYSNSYSFWLASLNPERMFRKPIPSTVKAGELEKIISRCQVCMKKRH
With B1 as the molecule, how does the “numbers of tube-like structures formed” value (HMVEC-LLy cells [3]) read?
The value was “reduce in a concentration related manner”.

And the “reduction of cell viability (MTT)” value (LAM nodule cells)?
Its value is “effective in reducing cell viability at higher concentrations”.

What about the “cell viability (MTT)” value [4] of the same molecule?
The value was “lamstatin only”.

And the “predominant integrins that mediate the binding of lymphatic endothelial cells” value (integrins α5 and β1)?
Its value is “integrins α5 and β1”.

B2: VEGFD: growth factor (R&D Systems) used as chemoattractant gradient for lymphatic endothelial cells (protein)
chain: FYDIETLKVIDEEWQRTQCSPRETCVEVASELGKSTNTFFKPPCVNVFRCGGCCNEESLICMNTSTSYISKQLFEISVPLTSVPELVPVKVANHTGCKCLPTAPRHPYS
For B2, which “migration of lymphatic endothelial cells towards VEGFD” value (HMVEC-LLy cells [2]; increasing concentrations of VEGFD) is on record?
The value was “attract lymphatic endothelial cells in a concentration related manner”.
